Three sequences from the supplement of paper PMC6379048 can be followed below.

What all share (assay): EC50 of free RNA motif oligo competing protein binding to immobilised probe
One data set concerns the target ZC3HAV1 (UniProt Q7Z2W4). How it is done:
(§1)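 Competition-binding assay: HEK293-FT cell lysate (2.5 mg protein) pre-incubated 1 h at 4°C with free motif-containing RNA oligos (0 to 30 µM, 12 doses), then pulled down with the same 5'-amino-C6 RNA oligos immobilised on NHS-Sepharose beads (30 min, 4°C). Bound proteins were quantified by label-free LC-MS/MS and normalised to the water control. EC50 came from a four-parameter log-logistic fit; Kd = EC50 x depletion factor. Random/reversed control probes are dropped.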

In a further data set the target is T1, LIN28B (UniProt Q6ZN17).
T1 sequence: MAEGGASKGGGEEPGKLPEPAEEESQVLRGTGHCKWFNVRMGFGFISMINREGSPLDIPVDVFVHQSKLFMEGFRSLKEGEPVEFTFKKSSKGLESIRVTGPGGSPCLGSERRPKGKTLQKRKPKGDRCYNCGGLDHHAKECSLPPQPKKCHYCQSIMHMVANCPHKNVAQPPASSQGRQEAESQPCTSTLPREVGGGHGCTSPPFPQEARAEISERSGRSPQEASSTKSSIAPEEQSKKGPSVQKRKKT
The procedure: as §1

In another data set the target is T2, DIS3L2 (UniProt Q8IYB7).
T2 sequence: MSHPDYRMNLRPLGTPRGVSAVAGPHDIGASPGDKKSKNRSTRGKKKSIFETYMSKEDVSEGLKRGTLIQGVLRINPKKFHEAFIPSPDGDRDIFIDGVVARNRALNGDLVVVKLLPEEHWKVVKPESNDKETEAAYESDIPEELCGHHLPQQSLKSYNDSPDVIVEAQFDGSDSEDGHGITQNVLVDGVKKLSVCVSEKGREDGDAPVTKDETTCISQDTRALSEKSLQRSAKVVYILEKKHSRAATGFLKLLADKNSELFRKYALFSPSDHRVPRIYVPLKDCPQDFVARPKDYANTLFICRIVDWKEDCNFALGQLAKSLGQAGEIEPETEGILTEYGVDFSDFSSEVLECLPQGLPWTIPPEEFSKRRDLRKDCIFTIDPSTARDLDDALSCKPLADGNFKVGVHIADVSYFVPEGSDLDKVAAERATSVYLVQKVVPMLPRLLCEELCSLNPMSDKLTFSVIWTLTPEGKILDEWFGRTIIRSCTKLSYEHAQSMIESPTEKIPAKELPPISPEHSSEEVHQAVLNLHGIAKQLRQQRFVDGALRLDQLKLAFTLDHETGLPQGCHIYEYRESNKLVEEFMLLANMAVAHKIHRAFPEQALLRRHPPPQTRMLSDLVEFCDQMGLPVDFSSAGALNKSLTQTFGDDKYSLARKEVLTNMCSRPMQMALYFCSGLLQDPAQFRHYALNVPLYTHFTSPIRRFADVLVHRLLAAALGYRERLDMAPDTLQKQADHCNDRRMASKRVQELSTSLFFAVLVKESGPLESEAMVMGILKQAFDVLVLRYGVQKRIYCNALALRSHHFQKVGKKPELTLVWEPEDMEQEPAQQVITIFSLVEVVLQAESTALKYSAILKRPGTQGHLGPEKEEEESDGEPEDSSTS
The procedure: as §1

The next data set addresses PHAX (UniProt Q9H814). How it is done: as §1
The next data set concerns the target T3, ZCCHC8 (UniProt Q6NZY4).
T3 sequence: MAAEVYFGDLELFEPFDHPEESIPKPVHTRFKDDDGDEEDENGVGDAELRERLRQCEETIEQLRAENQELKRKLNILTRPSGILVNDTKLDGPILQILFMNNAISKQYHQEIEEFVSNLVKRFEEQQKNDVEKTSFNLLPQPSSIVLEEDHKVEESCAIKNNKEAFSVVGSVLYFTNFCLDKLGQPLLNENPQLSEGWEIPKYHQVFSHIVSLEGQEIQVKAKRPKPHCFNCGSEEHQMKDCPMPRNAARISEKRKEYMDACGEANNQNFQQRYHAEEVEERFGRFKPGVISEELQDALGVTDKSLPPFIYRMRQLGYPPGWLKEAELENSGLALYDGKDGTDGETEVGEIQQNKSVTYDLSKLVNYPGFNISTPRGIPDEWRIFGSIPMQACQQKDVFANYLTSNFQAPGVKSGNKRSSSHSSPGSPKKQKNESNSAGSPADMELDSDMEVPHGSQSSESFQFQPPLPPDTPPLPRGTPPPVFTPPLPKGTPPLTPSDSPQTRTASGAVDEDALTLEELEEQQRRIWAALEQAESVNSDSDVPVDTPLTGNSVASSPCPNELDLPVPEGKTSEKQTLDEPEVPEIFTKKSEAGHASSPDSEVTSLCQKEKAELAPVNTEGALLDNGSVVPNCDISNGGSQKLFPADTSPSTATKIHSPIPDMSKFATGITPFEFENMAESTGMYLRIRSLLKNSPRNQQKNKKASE
The procedure: as §1

Another data set addresses T4, CELF2 (UniProt O95319).
T4 sequence: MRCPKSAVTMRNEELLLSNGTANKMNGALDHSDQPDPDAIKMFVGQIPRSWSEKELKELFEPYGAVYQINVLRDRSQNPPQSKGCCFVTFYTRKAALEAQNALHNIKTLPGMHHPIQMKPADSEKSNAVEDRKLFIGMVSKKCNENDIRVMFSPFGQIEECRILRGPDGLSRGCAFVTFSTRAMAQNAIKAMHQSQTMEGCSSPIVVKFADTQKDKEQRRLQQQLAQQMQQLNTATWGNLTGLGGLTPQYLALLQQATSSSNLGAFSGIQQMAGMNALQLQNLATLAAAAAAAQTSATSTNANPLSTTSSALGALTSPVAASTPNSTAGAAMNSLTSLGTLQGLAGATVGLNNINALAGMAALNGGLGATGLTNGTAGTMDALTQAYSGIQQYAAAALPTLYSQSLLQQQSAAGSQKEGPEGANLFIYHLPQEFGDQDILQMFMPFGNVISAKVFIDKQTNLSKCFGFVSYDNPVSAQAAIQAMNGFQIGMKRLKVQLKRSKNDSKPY
The procedure: as §1

ZC3HAV1, sequence (Q7Z2W4 whole entry): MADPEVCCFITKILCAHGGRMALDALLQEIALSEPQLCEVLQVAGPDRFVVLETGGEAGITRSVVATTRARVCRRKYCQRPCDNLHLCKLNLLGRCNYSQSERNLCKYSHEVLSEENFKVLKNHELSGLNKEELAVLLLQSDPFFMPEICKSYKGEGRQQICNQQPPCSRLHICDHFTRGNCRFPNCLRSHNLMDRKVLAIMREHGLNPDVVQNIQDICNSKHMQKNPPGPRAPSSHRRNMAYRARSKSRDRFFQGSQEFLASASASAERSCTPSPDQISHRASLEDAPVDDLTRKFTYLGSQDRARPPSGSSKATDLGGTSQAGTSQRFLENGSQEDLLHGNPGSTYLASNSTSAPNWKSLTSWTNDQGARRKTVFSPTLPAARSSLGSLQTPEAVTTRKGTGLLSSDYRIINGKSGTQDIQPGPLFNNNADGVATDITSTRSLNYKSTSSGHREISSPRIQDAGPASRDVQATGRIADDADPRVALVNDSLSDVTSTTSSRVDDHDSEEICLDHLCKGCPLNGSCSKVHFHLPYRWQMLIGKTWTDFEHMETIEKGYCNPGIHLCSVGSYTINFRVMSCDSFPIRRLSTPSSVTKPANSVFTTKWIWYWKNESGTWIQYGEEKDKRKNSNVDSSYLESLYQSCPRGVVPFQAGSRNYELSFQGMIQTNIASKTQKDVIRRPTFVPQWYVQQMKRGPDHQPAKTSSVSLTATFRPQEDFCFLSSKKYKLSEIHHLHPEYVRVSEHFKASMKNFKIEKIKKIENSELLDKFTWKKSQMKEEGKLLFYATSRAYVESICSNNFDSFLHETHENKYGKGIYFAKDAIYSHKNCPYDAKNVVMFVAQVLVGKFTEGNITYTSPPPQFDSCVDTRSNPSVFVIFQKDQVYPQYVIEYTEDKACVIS
PHAX, sequence (Q9H814 whole entry): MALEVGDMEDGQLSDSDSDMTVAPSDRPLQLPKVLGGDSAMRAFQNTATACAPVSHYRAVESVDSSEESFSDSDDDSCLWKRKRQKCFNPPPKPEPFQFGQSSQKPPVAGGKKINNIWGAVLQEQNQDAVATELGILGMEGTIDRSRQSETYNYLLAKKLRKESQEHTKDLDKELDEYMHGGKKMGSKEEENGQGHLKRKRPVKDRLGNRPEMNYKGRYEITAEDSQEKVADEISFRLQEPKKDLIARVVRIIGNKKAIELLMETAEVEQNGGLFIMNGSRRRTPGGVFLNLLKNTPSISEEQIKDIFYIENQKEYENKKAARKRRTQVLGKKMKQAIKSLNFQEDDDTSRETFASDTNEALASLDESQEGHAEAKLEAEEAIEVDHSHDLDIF

The EC50 is the concentration at which the effect is half-maximal. High values mean a less potent agent, low ones a more potent agent. In the case of AAUAAA, the EC50 with ZC3HAV1 worked out at 3.9 µM; in the data set with LIN28B, 2.92 µM; in the data set with DIS3L2, 1.34 µM; with PHAX, 10.7 µM; in the data set with ZCCHC8, 2.46 µM; with CELF2, 1.25 µM.
For CUGUCCU, the EC50 amounted to 1.32 µM in the data set with ZC3HAV1; 2.3 µM in the data set with LIN28B; 1.18 µM with DIS3L2; 1.35 µM in the data set with PHAX; 3.11 µM with ZCCHC8; 2.67 µM in the data set with CELF2.
Take UAUUUAU: the EC50 with ZC3HAV1 turned out to be 5.38 µM; in the data set with LIN28B it was 1.47 µM; in the data set with DIS3L2, 0.376 µM; with PHAX it was 9.1 µM; in the data set with ZCCHC8 it was 0.615 µM; in the data set with CELF2 it was 0.517 µM.
